Assay results from patent US20220372114A1 (CURIA IP, published 2022).
Values joined by “and” are separate entries in the source; they are usually repeats but may differ in a detail not shown here. Equal entries are not always repeated.

Legend:
[1] = molecular target: SARS-CoV-2 spike protein on live wild-type virus (SARS-CoV-2, UniProt P0DTC2 14-1273); test: cell-based or functional assay
[2] = molecular target: SARS-CoV-2 (WIV02 isolate) prefusion stabilized spike trimer protein (SARS-CoV-2 (WIV02 isolate), UniProt P0DTC2 14-1213); test: ELISA

| Binder | IC50, BSL3 Vero E6 infection plaque assay [1] | binding result [2] |
| --- | --- | --- |
| 10-B13-A (human Fc IgG2 chimera) (antibody, V domains shown) VH: QVQLQQSGAELVKPGASVKISCKASGYAFSNYWMNWVKQRPGKGLEWIGQIYPGDGDTNYNGNFKGKATLTADKSSSTAYIQLSSLTSEDSAVYFCGRGFIATVVEVFDHWGLGTTLTVSS VL: DIQMTQTTSSLSASLGDRVTISCRASQDISNYLNWYQQKPDGTVKLLIYYTSRLQSGVPSRFSGSGTGTDYSLTISNLEQEDIATYFCQQGNTLPWTFGGGTKLEIK | 0.21 µg/mL and 1.4 nM |  |
| 4-K13-A (antibody, V domains shown) VH: QAYLQQSGAELVRPGASVKMSCKASGYTFTSYTVHWVKQTPRQGLEWIGAIYPGNVDTSYNQNFKGKATLTVDKSSSTAYMQLSSLTSEDSAVYFCARDGYYAMDYWGQGTSVTVSS VL: not shown |  | binds |
| 5-P24-A (antibody, V domains shown) VH: QAYLQQSGAELVRPGASVKMSCKASGYTFTSYSMHWVKQTPRQGLEWIGAIYPGNGDTSYTQKFKGKATLTVDKSSSTAYMQLSSLTSEDSAVYFCARDYSNYPFDYWGQGTTLTVSS VL: not shown |  | binds |
| 10-L12-A (antibody, V domains shown) VH: QAYLQQSGAELVRPGASVKMSCKASGYTFTSYSMHWVKQTPRQGLEWIGAIYPGNGDTSYNQKFKGKATLTVDKSSSTAYMQLSSLTSEDSAVYFCTRDYSNYPFDYWGQGTTLTVSS VL: DIVLTQSPASLAVSLGQRATISCRASKSVSTSGYSYLHWYQQKPGQPPKLLIYLASNLESGVPARFSGSGSGTDFTLNIHPVEEEDAATYYCQHSRELPPTFGGGTKLEIK |  | binds |
| 7-B10-A (antibody, V domains shown) VH: EVQLVESGGGLVQPKGSLKLSCAASGFTFNTYAMHWVRQAPGKGLEWVARIRSKSSNYARYYADSVKDRFTISRDESQSMLYLQMNNLKTEDTAMYYCVRDHDYYGSSYWFAYWGQGTLVTVSA VL: DVVMTQTPLSLPVSLGDQASISCSSSQSLVHNNGNTYLHWYLQKPGQSPKLLIYKVSNRFSGVPDRFSGSGSGTDFTLKISRVEAEDLGVYFCSQSTHVPWTFGGGTKLEIK |  | binds |
